Reference: patent US20240228645A1
Each block holds one substance with its values, some of them ahead of it.

How the values were obtained:
[1] = molecular target: human BAFF-R expressed on cells (hBAFF-R-CHO isogenic CHO cells; BAFF-R+ cancer cells) (human) (UniProt Q96RJ3); experiment: cell-based blocking assay; MFI of BAFF-biotin bound to CHO cells expressing human BAFF-R in the presence of the control antibody
PSR [2] = experiment: PSR assay: antibody on Protein A coated beads, biotinylated PSR, SA-PE, flow cytometry; +PSR panel, other quadrants Q1 98.8, Q3 0, Q4 0.048
PSR [3] = experiment: PSR assay: antibody on Protein A coated beads, biotinylated PSR, SA-PE, flow cytometry; +PSR panel, other quadrants Q1 72.8, Q3 7.72E-3, Q4 0.29; without PSR Q2 0
[4] = molecular target: hBAFF-R-hFc-His fusion protein (human) (UniProt Q96RJ3); experiment: yeast surface display flow cytometry; hBAFF-R-hFc-His (concentration not given); other quadrants Q1 0.34, Q3 5.47, Q4 34.4
[5] = molecular target: hBAFF-R-hFc-His fusion protein (human) (UniProt Q96RJ3); experiment: yeast surface display flow cytometry; hBAFF-R-hFc-His (concentration not given); other quadrants Q1 0.35, Q3 13.0, Q4 28.5
[6] = molecular target: hBAFF-R-hFc-His fusion protein (human) (UniProt Q96RJ3); experiment: yeast surface display flow cytometry, before challenge: 100 pM hBAFFR-Fc biotin for 1 hr at RT; other quadrants Q1 44.1, Q3 9.77E-3, Q4 14.6
[7] = molecular target: hBAFF-R-hFc-His fusion protein (human) (UniProt Q96RJ3); experiment: yeast surface display flow cytometry, after challenge: 100 pM hBAFFR-Fc biotin, then 1 mM (so in the source); paragraph 270 says 1 uM) nonbiotinylated hBAFFR-Fc, t = 120 min
[8] = molecular target: hBAFF-R-hFc-His fusion protein (human) (UniProt Q96RJ3); experiment: yeast surface display flow cytometry; hBAFF-R-hFc-His (concentration not given)
[9] = molecular target: hBAFF-R-hFc-His fusion protein (human) (UniProt Q96RJ3); experiment: yeast surface display flow cytometry; hBAFF-R-hFc-His (concentration not given); other quadrants Q1 0.17, Q3 10.5, Q4 22.3
[10] = molecular target: hBAFF-R-hFc-His fusion protein (human) (UniProt Q96RJ3); experiment: yeast surface display flow cytometry, after challenge: 100 pM hBAFFR-Fc biotin for 1 hr at RT, then 1 mM (so in the source); paragraph 270 says 1 uM) nonbiotinylated hBAFFR-Fc, t = 120 min; other quadrants Q1 64.5, Q3 0.050, Q4 21.0

Minimum (MFI) [1]: 68000 MFI
Substance: Human IgG1k (antibody)

Q2, percent of beads positive for FITC and for PSR binding (PE), +PSR (PSR [2]): 1.18
Substance: Trastuzumab (antibody)

Q2, percent of beads positive for FITC and for PSR binding (PE), +PSR (PSR [3]): 27.1
Substance: Ixekuzumab (antibody)

Q2, percent of events positive for scFv expression and for antigen binding [4]: 59.5
Q2, percent of events positive for scFv expression and for antigen binding [5]: 58.2
Q2, percent of events positive for scFv expression and for antigen binding, before challenge [6]: 41.3
Iana (drawn gate), percent of events, after challenge [7]: 0.13
Gated lane, percent of events in the drawn gate [8]: 0.3
Gated, percent of events in the drawn gate [8]: 0.72
Q2, percent of events positive for scFv expression and for antigen binding [9]: 67
Q2, percent of events positive for scFv expression and for antigen binding, after challenge [10]: 14.4
Substance: ianalumab-based scFv benchmark control displayed on yeast
